{
  "source": "paper PMC8741891",
  "target": "Escherichia coli heat-labile enterotoxin holotoxin (human enterotoxigenic strain PE0415), nicked and reduced (E. coli (human enterotoxigenic strain PE0415)) (UniProt P43530)",
  "assay": "ELISA; […] (1 ug/mL) […] (20 ug/mL, […]) for 1 h at 37 C; […]",
  "data": [
    {"substance": "protein disulfide isomerase, reduced (from UniProt P07237 18-508) (enzyme)", "values": [
      {"measurement": "percent of A1 released from the holotoxin by PDI", "value": 7, "unit": "%"}
    ]}
  ]
}
